Experimental data as given in patent publication US20250042997A1 (PHYLAXIS BIOSCIENCE, published 2025).
Where a chain is given by its changes, count along the chain named.

B1: Siglec8 hzG2v29, monomeric VHH-hIgG1 fusion (Fc NNT) (Fc fusion)
chain: EVQLLESGGGEVRPGGSLRLSCAASGSISIFSMYVVAWYRQAPGKQREWVAFIQRGGTANYAESAKGRFTISRDNAKNTVYLQMSSLRAEDTAVYYCNYINSDNEIGGPWGQGTLVTVKP
notes: Monomeric format; not shown: non-dimerizing human IgG1 Fc variant lacking a hinge (Fc NNT)
B2: Siglec8 hzG2v28, monomeric VHH-hIgG1 fusion (Fc NNT) (Fc fusion)
chain: B1 chain with R13Q, P14T
notes: as for B1
B3: Siglec8 hzG2v33, monomeric VHH-hIgG1 fusion (Fc NNT) (Fc fusion)
chain: B1 chain with R13Q, P14T, E90D
notes: as for B1
B4: Siglec8 hzG2v30, monomeric VHH-hIgG1 fusion (Fc NNT) (Fc fusion)
chain: B1 chain with E11L, P14T
notes: as for B1
B5: Siglec8 hzG2v32, monomeric VHH-hIgG1 fusion (Fc NNT) (Fc fusion)
chain: B1 chain with R13Q, P14T, A89P
notes: as for B1
B6: anti-Siglec8-D1-xELL, bivalent VHH-hIgG1-xELL-Fc (Fc fusion)
chain: QVQLVESGGGLVQPGGSLRLSCAASGSIASIHGMGWYRQAPGKERELVAAIAGEGSTYYADSVKGRFTISRDFAKNTLYLQMNNLKAEDTAMYYCANNDERDDYWGQGTQVTVKPGGGGDKTHTCPPCPAPGGPSVFLFPPKPKDTLMISRTPEVTCVVVDVSHEDPEVKFNWYVDGVEVHNAKTKPREEQYNSTYRVVSVLTVLHQDWLNGKEYKCKVSNKALPAPIEKTISKAKGQPREPQVYTLPPSRDELTKNQVSLTCLVKGFYPSDIAVEWESNGQPENNYKTTPPVLDSDGSFFLYSKLTVDKSRWQQGNVFSCSVMHEALHNHYTQKSLSLSPGK
notes: Homodimer through the Fc; also called cx8983; Bi-D1
B7: anti-Siglec8-E2-xELL, bivalent VHH-hIgG1-xELL-Fc (Fc fusion)
chain: QVQLVESGGGLVQPGGSLRLSCATSGIIFTSNVINWYRQAPGKQREFVAFITSITSGQSTMYADAVKGRFTVSRDNDKNIGYLQMTSLQPEDTARYVCNVGAYWGQGTQVTVKPGGGGDKTHTCPPCPAPGGPSVFLFPPKPKDTLMISRTPEVTCVVVDVSHEDPEVKFNWYVDGVEVHNAKTKPREEQYNSTYRVVSVLTVLHQDWLNGKEYKCKVSNKALPAPIEKTISKAKGQPREPQVYTLPPSRDELTKNQVSLTCLVKGFYPSDIAVEWESNGQPENNYKTTPPVLDSDGSFFLYSKLTVDKSRWQQGNVFSCSVMHEALHNHYTQKSLSLSPGK
notes: Homodimer through the Fc; also called cx8984; Bi-E2
B8: anti-Siglec8-B12-xELL, bivalent VHH-hIgG1-xELL-Fc (Fc fusion)
chain: QVQVVESGGGLVQPGGSLRLSCAASGSTSLLNAMAWYRQAPGKERELVAAISSGGGTYYADSVKGRFTISTNNAKNTLYLQMNSLKPEDTAMYYCAPGPNYSDYEEINWGQGTQVTVKPGGGGDKTHTCPPCPAPGGPSVFLFPPKPKDTLMISRTPEVTCVVVDVSHEDPEVKFNWYVDGVEVHNAKTKPREEQYNSTYRVVSVLTVLHQDWLNGKEYKCKVSNKALPAPIEKTISKAKGQPREPQVYTLPPSRDELTKNQVSLTCLVKGFYPSDIAVEWESNGQPENNYKTTPPVLDSDGSFFLYSKLTVDKSRWQQGNVFSCSVMHEALHNHYTQKSLSLSPGK
notes: Homodimer through the Fc; also called cx8982; Bi-B12
B9: anti-Siglec8-G2-xELL, bivalent VHH-hIgG1-xELL-Fc (Fc fusion)
chain: QVTLKESGGGLVRTGGSLRLSCAASGSISIFSMYVVAWYRQAPGKQREWVAFIQRGGTANYADSAKGRFTISRDNAKNTVYLQMASLKPDDTAVYYCNYINSDNEIGGPWGQGTQVTVKPGGGGDKTHTCPPCPAPGGPSVFLFPPKPKDTLMISRTPEVTCVVVDVSHEDPEVKFNWYVDGVEVHNAKTKPREEQYNSTYRVVSVLTVLHQDWLNGKEYKCKVSNKALPAPIEKTISKAKGQPREPQVYTLPPSRDELTKNQVSLTCLVKGFYPSDIAVEWESNGQPENNYKTTPPVLDSDGSFFLYSKLTVDKSRWQQGNVFSCSVMHEALHNHYTQKSLSLSPGK
notes: Homodimer through the Fc; also called cx10382
B10: Siglec8 hzG2v17, monomeric VHH-hIgG1 fusion (Fc NNT) (Fc fusion)
chain: B1 chain with R13Q, M33I, Q46E
notes: as for B1
B11: hzG2v19 (Fc fusion)
VHH: B1 chain with R13Q, M33S, V35A, Q46E
notes: also called Siglec8 hzG2v19; monomeric VHH-hIgG1 fusion (Fc NNT); not shown: The non-dimerizing, hinge-less human IgG1 Fc variant (Fc NNT) and any linker to it
B12: hzG2v21 (Fc fusion)
VHH: B1 chain with R13Q, M33S, V35A, V36M, A37S, Q46E
notes: also called Siglec8 hzG2v21; monomeric VHH-hIgG1 fusion (Fc NNT); not shown: The non-dimerizing, hinge-less human IgG1 Fc variant (Fc NNT) and any linker to it
B13: Siglec8 hzG2v26, monomeric VHH-hIgG1 fusion (Fc NNT) (Fc fusion)
chain: B1 chain with E11L
notes: as for B1
B14: Siglec8 hzG2v18, monomeric VHH-hIgG1 fusion (Fc NNT) (Fc fusion)
chain: B1 chain with R13Q, M33K, Q46E
notes: as for B1
B15: Siglec8 hzG2v25, monomeric VHH-hIgG1 fusion (Fc NNT) (Fc fusion)
chain: B1 chain with E11L, R13Q, P14T
notes: as for B1

Biological target: T1, human Siglec-8 (full-length, on transfected CHO or 293 cells, or native on human eosinophils) (human, UniProt Q9NYZ4 17-499)
Assay: flow cytometry on 293 cells transiently transfected with full-length human Siglec-8; A647 anti-human Fc-gamma secondary; median fluorescence, nonlinear fit; table under the graph (Kd column without unit, concentration axis nM Ab)
Experimental: (§1) The binding of the lmG2 and humanized versions (further including Siglec8 hzG2v14), formatted as monomeric VHH-hIgG1 fusions proteins using a non-dimerizing human IgG1 Fe variant region lacking a hinge Fe NNT, was assessed by flow cytometry using 293 cells that had been transiently transfected with full-length human Siglec-8 and detected with an anti-human AF647 secondary antibody. Binding specificity was assessed using untransfected 293 cells as a control. For the binding assays, Siglec-8 293 cells or untransformed 293 cells were seeded in a 96 well U-bottom plate with 50 k cells/well in FACS buffer and incubated at 4° C. with a titration of anti-Siglec8-VHH-NNT for 30 minutes. After washing, the plates were incubated with an A647-conjugated anti-human Fcγ specific secondary antibody diluted 1:10,000 in FACS buffer for 20 minutes at 4° C. The plates were washed, and binding was determined by flow cytometry quantitating anti-human A647 median fluorescent intensity. The maximum specific binding (Bmax) and affinity (Kd) for was determined from the flow cytometry binding data using a nonlinear fit model.

T1 sequence (Q9NYZ4 17-499): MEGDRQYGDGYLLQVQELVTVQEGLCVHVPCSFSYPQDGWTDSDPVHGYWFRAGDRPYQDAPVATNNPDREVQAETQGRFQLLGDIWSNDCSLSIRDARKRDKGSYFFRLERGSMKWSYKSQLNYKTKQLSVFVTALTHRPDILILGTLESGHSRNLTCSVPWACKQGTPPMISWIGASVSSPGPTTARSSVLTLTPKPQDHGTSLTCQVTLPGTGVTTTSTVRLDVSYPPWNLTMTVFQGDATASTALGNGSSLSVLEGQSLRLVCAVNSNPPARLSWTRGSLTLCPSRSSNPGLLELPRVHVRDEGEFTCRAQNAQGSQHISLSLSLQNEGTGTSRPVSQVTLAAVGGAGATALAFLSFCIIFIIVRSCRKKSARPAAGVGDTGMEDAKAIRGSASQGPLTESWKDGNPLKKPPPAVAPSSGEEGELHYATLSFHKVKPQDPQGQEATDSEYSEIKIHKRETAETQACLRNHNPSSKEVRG

Binder | Kd [nM]
B1 | 0.111
B2 | 0.0966
B3 | 0.0979
B4 | 0.124
B5 | 0.0643

Biological target: T1, human Siglec-8 (full-length, on …)
Assay: flow cytometry on 293 cells transiently transfected with full-length human Siglec-8; A647 anti-human Fc-gamma secondary; median fluorescence, nonlinear fit; table under the graph
Experimental: as §1

Binder | Bmax
B3 | 1.39e+06 Median (anti-human A647)
B5 | 1.45e+06 Median (anti-human A647)

Biological target: T1, human Siglec-8 (full-length, on …)
Assay: flow cytometry on human eosinophils (CD16- CCR3+) from whole blood; anti-human AF647 secondary; MFI
From the text: To determine if increasing the valency of Siglec-8 antibodies could enhance agonist activity, the parental llama B12, D1 and E2 VHH sequences were used to generate tetravalent (Tet-B12 (cx8467; SEQ ID NO:50 linked to an Fe), Tet-D1 (cx8469; SEQ ID NO:56 linked to an Fe), and Tet-E2 (cx8463; SEQ ID NO:62 linked to an Fc)) and hexavalent (Hex-B12 (cx8466; SEQ ID NO:51 linked to an Fe), Hex-D1 (cx8523; SEQ ID NO:57 linked to an Fe), and Hex-E2 (cx8522; SEQ ID NO:165 linked to an Fc)), Siglec8-VHH-Fc antibodies linked to a reduced effector function xELL human Fc region via linker 2. The bivalent (Bi-B12 (cx8982), Bi-D1 (cx8983) and Bi-E2 (cx8984)), tetravalent, and hexavalent Siglec8-VHH-Fc antibodies were assessed by flow cytometry for binding to eosinophils (CD16⁻ CCR3⁺). Cells were isolated from whole blood by centrifugation, washed twice with 2% FBS PBS, and resuspended in 1×RBC lysis buffer for 10 minutes at room temperature (RT), washed once in 2% FBS PBS and treated with a second RBC lysis step and washed twice with 2% FBS. Cells were seeded at 200 k/well and resuspended in Human FC block for 10 minutes at RT. Cells were spun down and then resuspended in titrated test articles starting at 200 nM 1:4 and incubated for 30 minutes at 4° C. before being washed twice and resuspended in secondary mixture (2*; anti-CCR3 FITC, anti-human AF647, PI, anti-CD16 BV605) and incubated for 30 minutes at 4° C., washed twice, and bound antibodies were detected via flow cytometry (Novocyte).
As shown in FIG. 2A-2C, bivalent, tetravalent, and hexavalent Siglec8-VHH-Fc antibodies B12 (FIG. 2A), D1 (FIG. 2B) and E2 (FIG. 2C) bound to eosinophils. The calculated affinity was similar between the bivalent, tetravalent, and hexavalent hzSiglec8-VHH-Fc antibodies. The observed Bmax was reduced with increasing valency as anticipated, due the fact that the Fc portion of the antibody was detected in this assay and the ratio of Fc regions to anti-Siglec-8 binding domains is inverse to valency. No binding was observed on other granulocyte populations (CD16⁺ CCR3⁻).

Binder | EC50 (read off the curve) [nM]
B6 | ~0.06
B7 | ~0.1
B8 | ~0.1

Biological target: T1, human Siglec-8 (full-length, on …)
Assay: flow cytometry on CHO cells transiently transfected with full-length human Siglec-8; A647 anti-human Fc-gamma secondary; Mean RL1-H
Experimental: (§2) Binding of the anti-human Siglec-8 VHHs, B12, D1, E2, and G2, as a bivalent VHH-hIgG1-xELL-Fc (VHH of SEQ ID NO: 49, 55, 61, and 1, respectively linked to an Fe xELL via linker 2, these constructs are also designated cx8982, cx8983, cx8984, and cx10382, respectively) was determined by flow cytometry using CHO cells that had been transiently transfected with full-length human Siglec-8. Binding specificity was assessed using untransfected (UT) CHO cells as a control. For the binding assays, 50,000 Siglec-8 CHOs or UT CHOs were seeded in a 96-well plate and a titration of anti-Siglec8-VHH-xELL was added in FACS Buffer (PBS 1% BSA, 0.1% NaN3 pH 7.4) incubating for 30 minutes at 4° C. After washing, the plates were incubated with an A647-conjugated anti-human Fcγ specific secondary antibody (Jackson ImmunoResearch) diluted 1:2000 in FACS buffer for 30 minutes at 4° C. The plates were washed, and binding was determined by flow cytometry quantitating anti-human A647 mean fluorescent intensity using an Intellicyt iQue Plus.
(§3) The binding was specific to Siglec-8 as there was no detectable binding to untransfected CHO cells for any of the tested constructs.

Binder | EC50 (read off the curve) [nM]
B6 | ~0.5
B7 | ~0.4
B8 | ~0.4
B9 | ~0.3

Biological target: T1, human Siglec-8 (full-length, on …)
Assay: flow cytometry, CHO cells transiently transfected with full-length human Siglec-8 (apparent affinity)
Experimental: as §2, §3

Binder | Kd [nM]
B6 | 0.427
B7 | 0.331
B8 | 0.367
B9 | 0.268

Biological target: T1, human Siglec-8 (full-length, on …)
Assay: flow cytometry on 293 cells transiently transfected with full-length human Siglec-8; A647 anti-human Fc-gamma secondary; median fluorescence, nonlinear fit; table under the graph (Kd column without unit, concentration axis nM Ab)
Remark: another data set of the same source
Experimental: as §1

Binder | Kd [nM]
B10 | 0.145
B11 | 41.9
B12 | 256
B13 | 0.151
B14 | 0.263
B15 | 0.0912

Biological target: T1, human Siglec-8 (full-length, on …)
Assay: flow cytometry on 293 cells transiently transfected with full-length human Siglec-8; A647 anti-human Fc-gamma secondary; median fluorescence, nonlinear fit; table under the graph
Remark: another data set of the same source
Experimental: as §1

Binder | Bmax
B10 | 1.17e+06 Median (anti-human A647)
B11 | 1.24e+06 Median (anti-human A647)
B12 | 1.1e+06 Median (anti-human A647)
B14 | 1.05e+06 Median (anti-human A647)
